In the RNAGym collection of RNA variant scans (doi:10.7554/elife.80360):

B1: Hairpin Ribozyme (parent)
chain: GUCCUCUUUCACGUGCGCGUGAAAGAGAGAAGUGAACCAGAGAAACACACGUUGUGGUAUAUUACCUGGUA

Variants of: B1
Assay: self-cleavage, relative activity (ratio to wild type); higher = more cleavage; co-transcriptional

Going from A26C U67G to A26G A39G, the self-cleavage rises from 0.196 to 0.379.

Compared with G27U A71C, G25U A39G is lower in self-cleavage: 0.904 for the first, 0.191 for the second.

Compared with G25C G54C, A26G U62G is lower in self-cleavage: 0.139 for the first, 0.0228 for the second.

Going from A26G U62C to A26G U62A, the self-cleavage falls from 0.277 to 0.228.

Going from A26U U52C to G27C C65G, the self-cleavage falls from 0.656 to 0.152.

Compared with G27A C50A, G25U U63A is higher in self-cleavage: 0.104 for the first, 0.184 for the second.

Going from A26G U58C to G27A G51C, the self-cleavage falls from 1.02 to 0.238.

Compared with A26C A44G, A26C A44C is lower in self-cleavage: 0.124 for the first, 0.0715 for the second.

Compared with G25U A35G, A26U A36G is higher in self-cleavage: 0.656 for the first, 0.723 for the second.

Compared with A26U U63G, G27A A36U is higher in self-cleavage: 0.158 for the first, 0.198 for the second.

First: G25U U55C
Second: G27C G51U
The self-cleavage of the first is higher: 0.205 for the first, 0.17 for the second.

Going from G27C G51C to A26U C50G, the self-cleavage rises from 0.135 to 0.148.

Compared with A26U C50A, G27C A59G is lower in self-cleavage: 0.209 for the first, 0.0478 for the second.

Going from G27C A59C to G27C A35U, the self-cleavage falls from 0.104 to 0.0854.

Going from G25U A28C to G25U A28G, the self-cleavage rises from 0.233 to 0.971.

Going from G27U G57C to A26C U62G, the self-cleavage falls from 0.159 to 0.0946.

Compared with A26U U55A, A26G G42U is higher in self-cleavage: 0.082 for the first, 0.371 for the second.

Going from A26G G42A to A26G G42C, the self-cleavage rises from 0.245 to 0.357.

First: G25U G32A
Second: G27U A59G
The self-cleavage of the first is lower: 0.128 for the first, 0.209 for the second.

First: G27U A59C
Second: G25U G54A
The self-cleavage of the first is lower: 0.0836 for the first, 0.496 for the second.

First: G27C A44C
Second: G27U G32A
The self-cleavage of the first is lower: 0.0898 for the first, 0.104 for the second.

Going from G27U G32U to A26U U67G, the self-cleavage falls from 0.211 to 0.2.

Going from G27U C46A to G27U C46G, the self-cleavage falls from 0.13 to 0.0944.

Going from G25U G68A to G27C U58G, the self-cleavage rises from 0.183 to 0.188.

Going from G27C U58A to A26U U60G, the self-cleavage rises from 0.123 to 0.437.

First: A26U U60C
Second: A26C G57C
The self-cleavage of the first is higher: 0.898 for the first, 0.0672 for the second.

Compared with A26U A31C, G25C U70A is higher in self-cleavage: 0.171 for the first, 0.574 for the second.

First: G25C U70C
Second: G27A C66U
The self-cleavage of the first is higher: 0.401 for the first, 0.13 for the second.

Compared with A26C G54C, G27A G42A is lower in self-cleavage: 0.243 for the first, 0.153 for the second.

First: G25U G69A
Second: G25C U33A
The self-cleavage of the first is higher: 0.261 for the first, 0.0816 for the second.

First: A26C C46A
Second: G25U A36G
The self-cleavage of the first is lower: 0.175 for the first, 0.639 for the second.

Compared with A26C A35G, A26C A35U is lower in self-cleavage: 0.529 for the first, 0.495 for the second.

Compared with A26C A59C, A26G C48G is higher in self-cleavage: 0.0674 for the first, 0.14 for the second.

Compared with A26G C48U, G27C C66G is lower in self-cleavage: 0.18 for the first, 0.156 for the second.

Compared with A26G G56A, G27U A43G is lower in self-cleavage: 0.271 for the first, 0.169 for the second.

Compared with G27U A43C, G27A A43C is lower in self-cleavage: 0.0898 for the first, 0.0674 for the second.

Compared with G27U G42A, G27U G42C is lower in self-cleavage: 0.149 for the first, 0.0625 for the second.

Compared with A26G A35C, A26G A35G is lower in self-cleavage: 0.799 for the first, 0.763 for the second.

Compared with A26G A35U, G27C A64U is lower in self-cleavage: 0.523 for the first, 0.184 for the second.

Compared with G27C A64C, A26C A49C is higher in self-cleavage: 0.128 for the first, 0.218 for the second.

Going from G27U C38U to A26C G34A, the self-cleavage rises from 0.157 to 0.906.

Going from A26G G40C to A26G G40A, the self-cleavage rises from 0.167 to 0.302.

First: A26C C38A
Second: A26C C38U
The self-cleavage of the first is lower: 0.163 for the first, 0.416 for the second.

Compared with A26C C38G, A26U A71U is higher in self-cleavage: 0.182 for the first, 0.433 for the second.

First: G27C A49C
Second: G27C A49G
The self-cleavage of the first is higher: 0.203 for the first, 0.075 for the second.

First: G27U C48A
Second: A26U G42U
The self-cleavage of the first is lower: 0.0902 for the first, 0.173 for the second.

First: A26U G42C
Second: G27A U63A
The self-cleavage of the first is higher: 0.139 for the first, 0.103 for the second.

Compared with G27A U63C, G27A U63G is lower in self-cleavage: 0.236 for the first, 0.134 for the second.

First: G25C G56U
Second: G25C G56C
The self-cleavage of the first is higher: 0.153 for the first, 0.148 for the second.

Going from A26C G40C to A26C G40U, the self-cleavage rises from 0.11 to 0.114.

Compared with G27A C46A, G27A C46G is higher in self-cleavage: 0.103 for the first, 0.138 for the second.

Compared with A26C U53G, G27U G34U is higher in self-cleavage: 0.883 for the first, 1.15 for the second.

First: G27U G34A
Second: A26C A28U
The self-cleavage of the first is lower: 0.282 for the first, 0.291 for the second.

Going from A26G A47C to A26G A47U, the self-cleavage falls from 0.251 to 0.152.

Compared with A26U A49C, A26U G27U is lower in self-cleavage: 0.157 for the first, 0.0812 for the second.

First: A26G G54C
Second: A26G A31G
The self-cleavage of the first is lower: 0.457 for the first, 0.884 for the second.

Going from A26G C37U to A26G C37G, the self-cleavage falls from 0.602 to 0.237.

Compared with G27A G56A, G27C U70G is higher in self-cleavage: 0.116 for the first, 0.122 for the second.

Compared with A26C A30C, G25C U53A is higher in self-cleavage: 0.25 for the first, 0.497 for the second.

Compared with G25U C37G, G25U C37U is higher in self-cleavage: 0.182 for the first, 0.427 for the second.

Compared with A26C G27U, A26C G27C is higher in self-cleavage: 0.0629 for the first, 0.197 for the second.

First: A26U G34U
Second: G27U G40C
The self-cleavage of the first is higher: 1.37 for the first, 0.0532 for the second.

Going from G27U G40U to G27U C50A, the self-cleavage rises from 0.0783 to 0.155.

First: A26U A45C
Second: A26G U53C
The self-cleavage of the first is lower: 0.223 for the first, 0.565 for the second.

Going from A26G U53A to G25U A43C, the self-cleavage falls from 0.814 to 0.166.

First: A26U A47C
Second: G27A A45U
The self-cleavage of the first is lower: 0.151 for the first, 0.201 for the second.

Going from A26C A36C to G27A U33A, the self-cleavage falls from 0.488 to 0.0964.

Going from A26C A39U to A26C A39C, the self-cleavage rises from 0.303 to 0.47.

Going from A26U C46U to A26U U33G, the self-cleavage falls from 0.11 to 0.107.

Compared with G25C U52G, G25C U52A is higher in self-cleavage: 0.356 for the first, 0.594 for the second.

Compared with G27A A41U, G27A A41G is lower in self-cleavage: 0.744 for the first, 0.261 for the second.

First: G27A A41C
Second: A26U G54A
The self-cleavage of the first is higher: 0.602 for the first, 0.318 for the second.

Going from G27U A61C to G25U A30C, the self-cleavage falls from 0.149 to 0.146.

Compared with A26G A43C, A26G A43G is higher in self-cleavage: 0.11 for the first, 0.114 for the second.

First: G27A U70C
Second: G27A U70A
The self-cleavage of the first is lower: 0.391 for the first, 0.426 for the second.

First: G25U G57U
Second: G25U G34A
The self-cleavage of the first is lower: 0.179 for the first, 0.897 for the second.

First: G25U A49G
Second: G25U A49C
The self-cleavage of the first is higher: 0.217 for the first, 0.179 for the second.

Going from G27U G51A to G27C A47U, the self-cleavage falls from 0.307 to 0.0683.

Going from G25U C38A to A26G U67G, the self-cleavage rises from 0.216 to 0.281.

First: G25U C46G
Second: G27C G42U
The self-cleavage of the first is lower: 0.153 for the first, 0.172 for the second.

First: A26U A43C
Second: G25C G51U
The self-cleavage of the first is lower: 0.098 for the first, 0.624 for the second.

Compared with A26G A45U, A26U A64U is higher in self-cleavage: 0.148 for the first, 0.175 for the second.

Going from G27A A61C to G25C U60A, the self-cleavage rises from 0.107 to 0.392.

Variant G25C U60G has a self-cleavage of 0.297.
